Assay results as given in publication PMC2685083.

Columns and labels:
[1] = biological target: myc-tagged β^+/his6-tagged β^C heterodimer (E. coli) (UniProt P0A988); assay: SPR
[2] = biological target: β^+–δ1 complex (his6-tagged β^+ homodimer with one tightly bound δ) (E. coli) (UniProt P0A988); assay: SPR

off rate relative to that from β^+ [1] [fold]	Kd [1] [µM]	koff [1] [s⁻¹]	kon [1] [M⁻¹ s⁻¹]	stoichiometry N [1]	Kd [2] [µM]	Substance
2	–	–	–	–	–	DnaX clamp loader complex, γ3δδ′χψ form (from UniProt P06710-2;P28630;P28631;P28905;P28632)
–	0.172	0.0125	72700	–	–	α catalytic subunit of Pol III (from UniProt P10443 1-1160) (enzyme)
–	0.0156	–	–	1	0.16	δ subunit of the DnaX clamp loader complex (from UniProt P28630 1-343) (natural protein)
